The values that follow come from paper PMC6628914 (Frontiers in Immunology, 2019).

The assay has as its target T1, HIV-1 JRFL envelope (Env, gp120-gp41) on HIV-1 JRFL pseudovirions (HIV-1 JR-FL, UniProt Q75760, strain).
T1 construct: also called HIV-1 JRFL virions; tier-2 JRFL pseudovirus; copies: 3 + 3
Put plainly: FRET or BRET + other: fluorescence correlation spectroscopy (FRET-FCS); all reactants in solution; donor (Alexa 488) and acceptor (Alexa 568) labelled Fabs with virions at 10 μg/ml (about 1.5 virions in the 1 fL focal volume); FRET bursts and diffusion coefficient of the acceptor channel (6 μm^2/s for virion-bound Fab). Particulars: one partner purified.

B1: 2G12 Fab, Alexa 488- or Alexa 568-labelled (Fab, V domains shown)
VH: EVQLVESGGGLVKAGGSLILSCGVSNFRISAHTMNWVRRVPGGGLEWVASISTSSTYRDYADAVKGRFTVSRDDLEDFVYLQMHKMRVEDTAIYYCARKGSDRLSDNDPFDAWGPGTVVTVSP
VL: DVVMTQSPSTLSASVGDTITITCRASQSIETWLAWYQQKPGKAPKLLIYKASTLKTGVPSRFSGSGSGTEFTLTISGLQFDDFATYHCQHYAGYSATFGQGTRVEIK
For B1, the binding result is reported as “binds”.
